We go through one substance from patent US20050032744A1.

The target of assay [1] is adenylyl cyclase (AC) in rat dorsal root ganglia (DRG) lysates (rat). In words: cell-based or functional assay.
For assay [2], the target named is adenylyl cyclase (AC) in rat spinal cord lysates / membrane preparations (rat). Put plainly: cell-based or functional assay.

In assay [1], “Protein Associated with Myc (PAM), human, full length, purified from HeLa cells (from UniProt O75592 1-4678)” showed an inhibition of Gαs-stimulated AC activity, DRG lysates, 30 nM PAM of 32%. In assay [2], the inhibition of Gαs-stimulated AC activity, spinal cord lysates of animals treated for 1 hour with formalin, 30 nM PAM came out at 25%; the inhibition of Gαs-stimulated AC activity, spinal cord lysates of control animals, 30 nM PAM came out at 49%; the inhibition of Gαs-stimulated AC activity, spinal cord lysates of rats 96 hours after zymosan injection, 30 nM PAM worked out at 70%.
